The target of test [1] is recombinant human protein kinase CK2 holoenzyme coupled to fluorescein isothiocyanate (FITC) (human) (UniProt P68400).
For test [2], the target named is CK2α-pAzF coupled to DBCO-Sulfo-Cy5 (human) (UniProt P68400). Put plainly: MST; B2 titrated (7.6 nM to 125 or 250 µM) to 100 nM fluorophore-labelled CK2α-DBCO-Sulfo-Cy5 or CK2β^1-193-Flu; 50 mM Tris/HCl pH 7.5, 25 mM NaCl, 20 mM MgCl2, Tween-20, DMSO; 37 °C, MST power 60%; Monolith NT.115; three independent measurements.

Sequence of recombinant human protein kinase CK2 holoenzyme coupled to fluorescein isothiocyanate (FITC) (human) (P68400 whole entry, chain 1 of 2): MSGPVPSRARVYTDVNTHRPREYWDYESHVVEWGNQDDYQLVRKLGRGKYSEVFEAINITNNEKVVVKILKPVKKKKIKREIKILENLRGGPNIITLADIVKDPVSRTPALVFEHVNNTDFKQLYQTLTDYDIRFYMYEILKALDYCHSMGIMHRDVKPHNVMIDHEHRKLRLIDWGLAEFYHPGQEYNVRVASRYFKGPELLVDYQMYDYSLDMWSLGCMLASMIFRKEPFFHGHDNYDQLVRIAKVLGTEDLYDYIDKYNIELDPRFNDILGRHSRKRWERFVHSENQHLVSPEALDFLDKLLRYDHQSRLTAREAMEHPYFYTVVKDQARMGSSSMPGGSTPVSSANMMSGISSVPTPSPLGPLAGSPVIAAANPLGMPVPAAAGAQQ
Sequence of recombinant human protein kinase CK2 holoenzyme coupled to fluorescein isothiocyanate (FITC) (human) (P67870 whole entry, chain 2 of 2, further chain): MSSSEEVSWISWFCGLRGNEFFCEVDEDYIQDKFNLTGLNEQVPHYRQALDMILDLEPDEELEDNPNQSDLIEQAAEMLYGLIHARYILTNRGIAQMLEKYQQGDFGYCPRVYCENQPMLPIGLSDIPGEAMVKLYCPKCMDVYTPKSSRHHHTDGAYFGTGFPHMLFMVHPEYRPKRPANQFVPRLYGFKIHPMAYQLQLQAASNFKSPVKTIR

B1: peptide B1 (free synthetic peptide) (peptide)
peptide: KHTKGPTAYCPL
For B1, in test [1], the percent inhibition of (unlabelled) CK2 holoenzyme at 10 µM peptide, CE assay was under 5%.

B2: peptide B2 (free synthetic peptide) (peptide)
peptide: DCRGLIVMIKLH
For B2, the dissociation constant (Kd) (in general, the constant that tells how readily two partners part at equilibrium) in test [2] turned out to be 2160 nM.

B3: peptide B4 (free synthetic peptide) (peptide)
peptide: PCPAPRAPKLSI
As for B3, the percent inhibition of (unlabelled) CK2 holoenzyme at 10 µM peptide, CE assay in test [1] worked out at 29%.

B4: peptide B3 (free synthetic peptide) (peptide)
peptide: YRKPHWFIHTRI
B4: the percent inhibition of (unlabelled) CK2 holoenzyme at 10 µM peptide, CE assay in test [1] is under 5%.
